Results published in US20170281720A1 (published 2017).
“And” between values parts separate entries of the source, which are not always exact repeats. Identical values can stand only once. Bridges are numbered along the chain shown (N, C = ends). [ ]: non-standard residue; d: D form. The star is where a group is joined. 5‑TAMRA = CN(C)c1ccc2c(-c3ccc(C(=O)*)cc3C(=O)[O-])c3ccc(N(C)C)cc3[o+]c2c1; pY = N[C@@H](Cc1ccc(OP(=O)(O)O)cc1)C(=O)O; NMeW = CN[C@@H](Cc1c[nH]c2ccccc12)C(=O)O; NMeY = CN[C@@H](Cc1ccc(O)cc1)C(=O)O; Palmitoyl = CCCCCCCCCCCCCCCC(=O)*; R8 = C=CCCCCCC[C@@](C)(N)C(=O)O; Cba = N[C@@H](CC1CCC1)C(=O)O; hLeu = CC(C)CC[C@H](N)C(=O)O; S5 = C=CCCC[C@](C)(N)C(=O)O; Decac = not defined here; Napac = not defined here; Nle = CCCC[C@H](N)C(=O)O; F4g = not defined here; G1a = not defined here; βAla = NCCC(=O)O

Columns and labels:
[1] = molecular target: MDM2 (In-house, 41 kD) (UniProt Q00987); assay: competitive fluorescence polarization on MDM2 against FAM-labeled linear peptide; grade, scale in paragraph 462
Sequence of MDM2 (In-house, 41 kD) (UniProt Q00987) (Q00987 1-125 limits assumed): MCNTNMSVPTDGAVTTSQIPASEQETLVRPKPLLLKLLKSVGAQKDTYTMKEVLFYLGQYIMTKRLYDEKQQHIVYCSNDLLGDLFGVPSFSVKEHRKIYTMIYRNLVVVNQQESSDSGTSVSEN

[2] = molecular target: T1, MDMX (In-house, 40 kD) (UniProt O15151); assay: competitive fluorescence polarization on MDMX against FAM-labeled linear peptide; grade, scale in paragraph 462
T1 sequence (looked up): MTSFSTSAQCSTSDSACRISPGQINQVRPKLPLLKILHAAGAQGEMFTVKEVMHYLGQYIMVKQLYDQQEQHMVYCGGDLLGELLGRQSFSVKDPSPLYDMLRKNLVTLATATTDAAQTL

[3] = molecular target: T2, MDM2 (In-house, 41 kD) (UniProt Q00987 1-125, limits assumed); assay: competitive fluorescence polarization on MDM2 against FAM-labeled linear peptide; grade, scale in paragraph 462
T2 construct: Only 'In-house, 41 kD' is said of the protein used in the fluorescence polarization assays; also called HDM2
T2 sequence (Q00987 1-125 limits assumed): as the sequence (Q00987 1-125 limits assumed) above

[4] = molecular target: T3, MDMX (In-house, 40 kD) (UniProt O15151 1-120, limits assumed); assay: competitive fluorescence polarization on MDMX against FAM-labeled linear peptide; grade, scale in paragraph 462
T3 construct: Only 'In-house, 40 kD' is said of the protein used in the fluorescence polarization assays; also called MDM4
T3 sequence (looked up): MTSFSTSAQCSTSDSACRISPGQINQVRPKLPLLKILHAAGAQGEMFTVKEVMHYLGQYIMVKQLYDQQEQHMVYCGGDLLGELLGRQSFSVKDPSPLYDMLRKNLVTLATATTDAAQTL

[5] = molecular target: T4, MDMX (In-house, 40 kD) (UniProt O15151 1-120, limits assumed); assay: IC50 (MDMX) grade; competitive FP vs FAM-labeled linear peptide; + = >1000 nM
T4 construct: The construct used is unknown; also called MDM4
T4 sequence (looked up): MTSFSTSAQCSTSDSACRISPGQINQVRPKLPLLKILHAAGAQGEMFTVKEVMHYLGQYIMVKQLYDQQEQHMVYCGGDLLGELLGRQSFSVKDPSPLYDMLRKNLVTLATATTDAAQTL

[6] = molecular target: T5, MDMX (In-house, 40 kD) (UniProt O15151 1-120, limits assumed); assay: competitive FP vs FAM labeled linear peptide; column IC50 (MDMX); + = >1000 nM by the table's scale
T5 construct: Only 'MDMX (In-house, 40 kD)' is said of the protein in the FP assays; also called MDM4
T5 sequence (looked up): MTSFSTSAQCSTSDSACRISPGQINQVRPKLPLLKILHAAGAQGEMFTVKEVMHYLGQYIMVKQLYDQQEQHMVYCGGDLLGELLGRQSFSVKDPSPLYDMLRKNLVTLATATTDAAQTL

[7] = molecular target: T5, MDMX (In-house, 40 kD); assay: competitive FP vs FAM labeled linear peptide; column Ki (MDMX); + = >1000 nM by the table's scale
[8] = molecular target: T4, MDMX (In-house, 40 kD); assay: Ki (MDMX) grade; competitive FP vs FAM-labeled linear peptide; + = >1000 nM
[9] = molecular target: T6, MDMX (In-house, 40 kD) (UniProt O15151 1-120, limits assumed); assay: FP competition on MDMX vs FAM-labeled linear peptide; graded Ki, + = >1000 nM
T6 construct: Construct not described beyond 'In-house, 40 kD'; also called MDM4
T6 sequence (looked up): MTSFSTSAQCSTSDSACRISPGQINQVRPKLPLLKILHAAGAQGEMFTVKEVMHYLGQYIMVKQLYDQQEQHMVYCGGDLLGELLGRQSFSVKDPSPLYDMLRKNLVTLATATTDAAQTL

[10] = molecular target: T6, MDMX (In-house, 40 kD); assay: FP competition on MDMX vs FAM-labeled linear peptide; graded IC50, + = >1000 nM

SP754, Ac-tawya$r5f4CF3ek$r51r-NH2 (peptide)
IC50 [1]: > 100 nM and < 1000 nM | IC50 [2]: > 1000 nM

SP753, Ac-tawy$r5nf4CF3e$r511r-NH2 (peptide)
IC50 [1]: > 10 nM and < 100 nM | IC50 [2]: > 1000 nM

SP758, Ac-tawya$s8f4CF3e1d1r$r5a-NH2 (peptide)
IC50 [1]: > 10 nM and < 100 nM | IC50 [2]: > 1000 nM

SP756, Ac-t$s8wyanf4CF3e$r511r-NH2 (peptide)
IC50 [1]: > 10 nM and < 100 nM | IC50 [2]: > 1000 nM

SP755, Ac-tawyanf4CF3e$r511r$r5a-NH2 (peptide)
IC50 [1]: < 10 nM | IC50 [2]: > 1000 nM

SP757, Ac-tawy$s8nf4CF3ek11$r5a-NH2 (peptide)
IC50 [1]: < 10 nM | IC50 [2]: > 1000 nM

SP752, Ac-t$r5wya$r5f4CF3e1d1r-NH2 (peptide)
IC50 [1]: > 100 nM and < 1000 nM | IC50 [2]: > 1000 nM

B1: SP686, 5-TAMRA-BaLTF$r8EYWAQCba$SAA-NH2 (peptide)
peptide: {5‑TAMRA}-[βAla]LTF[R8]EYWAQ[Cba][S5]SAA-NH2
modifications: staple 5-12
SMILES: CC(C)C[C@H](NC(=O)CCNC(=O)c1ccc(-c2c3ccc(N(C)C)cc3[o+]c3cc(N(C)C)ccc23)c(C(=O)[O-])c1)C(=O)N[C@H](C(=O)N[C@@H](Cc1ccccc1)C(=O)N[C@]1(C)CCCCCCC=CCCC[C@@](C)(C(=O)N[C@@H](CO)C(=O)N[C@@H](C)C(=O)N[C@@H](C)C(N)=O)NC(=O)[C@H](CC2CCC2)NC(=O)[C@H](CCC(N)=O)NC(=O)[C@H](C)NC(=O)[C@H](Cc2c[nH]c3ccccc23)NC(=O)[C@H](Cc2ccc(O)cc2)NC(=O)[C@H](CCC(=O)O)NC1=O)[C@@H](C)O
notes: stapled peptidomimetic macrocycle with fluorescent label
Ki [3]: ≤ 10 nM

B2: SP609, Ac-LTF$r8EYWAAibL$AAAAAa-NH2 (peptide)
peptide: LTFAEYWAXLAAAAAAA
modifications: not fully specified; N-terminal acetyl; $r8 (alpha-Me R8-octenyl-alanine) at 4 crosslinked to $ (alpha-Me S5-pentenyl-alanine) at 11; Aib (2-aminoisobutyric acid) at 9; D-alanine at 17; C-terminal amide
notes: stapled peptidomimetic macrocycle
Ki [3]: ≤ 10 nM

B3: SP716, Ac-LTF$r8EYWAQCba$AAA-NH2 (iso2) (peptide)
peptide: Ac-LTF[R8]EYWAQ[Cba][S5]AAA-NH2
modifications: staple 4-11; not fully specified
notes: stapled peptidomimetic macrocycle, isomer iso2
Ki [3]: ≤ 10 nM | Ki [4]: ≤ 10 nM

B4: SP281 (peptide)
peptide: Napac-LTF[R8]EYWAQ[hLeu][S5]SAA-NH2
modifications: staple 4-11; reading uncertain
notes: Peptidomimetic macrocycle (stapled p53-derived peptide)
IC50 [5]: > 1000 nM

B5: SP323 (peptide)
peptide: Ac-LTF[R8]AYWAQ[hLeu][S5]AA[Nle]AA-NH2
modifications: staple 4-11
notes: as for B4
IC50 [5]: > 1000 nM

B6: SP384 (peptide)
peptide: Ac-LTF[R8]A[NMeY]WAQL[S5]AA[Nle]A-NH2
modifications: staple 4-11; not fully specified
notes: Stapled peptidomimetic macrocycle, single isomer iso2; also called Ac-LTF$r8ANmYWAQL$AANleA-NH2
IC50 [6]: > 1000 nM | Ki [7]: > 1000 nM

B7: SP386 (peptide)
peptide: Ac-LTF[R8]AY[NMeW]AQL[S5]AA[Nle]A-NH2
modifications: staple 4-11; not fully specified
notes: Stapled peptidomimetic macrocycle, single isomer iso2; also called Ac-LTF$r8AYNmWAQL$AANleA-NH2
IC50 [6]: > 1000 nM | Ki [7]: > 1000 nM

B8: SP712, Ac-LTF$r8HYWAQCba$SAA-NH2 (iso2) (peptide)
peptide: Ac-LTF[R8]HYWAQ[Cba][S5]SAA-NH2
modifications: staple 4-11; also: single isomer iso2
notes: as for B3
Ki [3]: ≤ 10 nM | Ki [4]: ≤ 10 nM

B9: SP713, Ac-LTF$r8SYWAQCba$SAA-NH2 (iso2) (peptide)
peptide: Ac-LTF[R8]SYWAQ[Cba][S5]SAA-NH2
modifications: staple 4-11; also: single isomer iso2
notes: as for B3
Ki [3]: ≤ 10 nM | Ki [4]: ≤ 10 nM

B10: SP282 (peptide)
peptide: Decac-LTF[R8]EYWAQ[hLeu][S5]SAA-NH2
modifications: staple 4-11; reading uncertain
notes: as for B4
IC50 [5]: > 1000 nM | Ki [8]: > 1000 nM

Ac-LTA[R8]EYWAQ[Cba][S5]SAA-NH2 (staple 4-11) [SP252, Ac-LTA$r8EYWAQCba$SAA-NH2]
Ki [9]: > 1000 nM | IC50 [10]: > 1000 nM

Palmitoyl-ETF[R8]EYWAQ[Cba][S5]SAA-NH2 (staple 4-11) [SP250, Pam-ETF$r8EYWAQCba$SAA-NH2]
Ki [9]: > 1000 nM | IC50 [10]: > 1000 nM

B11: SP433, Ac-LTF$r8EYWCou7QCba$SAA-NH2 (peptide)
peptide: LTFAEYWXQAASAA
modifications: not fully specified; N-terminal acetyl; $r8 (alpha-Me R8-octenyl-alanine) at 4 crosslinked to $ (alpha-Me S5-pentenyl-alanine) at 11; Cou7 at 8 (structure given only as a drawing); Cba (cyclobutyl alanine) at 10; C-terminal amide
notes: as for B2
Ki [3]: ≤ 10 nM

B12: SP612, Ac-LTF$r8EYWACitL$AAAAAa-NH2 (peptide)
peptide: LTFAEYWAXLAAAAAAA
modifications: not fully specified; N-terminal acetyl; $r8 (alpha-Me R8-octenyl-alanine) at 4 crosslinked to $ (alpha-Me S5-pentenyl-alanine) at 11; Cit (citrulline) at 9; D-alanine at 17; C-terminal amide
notes: as for B2
Ki [3]: ≤ 10 nM

Ac-LTF[R8][G1a]YWAQL[S5]AAAAA[dA]-NH2 (staple 4-11; not fully specified; reading uncertain, stapled peptidomimetic macrocycle) [SP602, Ac-LTF$r8G1aYWAQL$AAAAAa-NH2]
Ki [3]: ≤ 10 nM | Ki [4]: ≤ 10 nM

Ac-LTF[R8]EYWANL[S5]AAAAA[dA]-NH2 (staple 4-11, stapled peptidomimetic macrocycle) [SP611, Ac-LTF$r8EYWANL$AAAAAa-NH2]
Ki [3]: ≤ 10 nM

Ac-LTF[R8]EYWAHL[S5]AAAAA[dA]-NH2 (staple 4-11, stapled peptidomimetic macrocycle) [SP613, Ac-LTF$r8EYWAHL$AAAAAa-NH2]
Ki [3]: ≤ 10 nM

Ac-LTF[R8][F4g]YWAQL[S5]AAAAA[dA]-NH2 (staple 4-11; not fully specified; reading uncertain, stapled peptidomimetic macrocycle) [SP603, Ac-LTF$r8F4gYWAQL$AAAAAa-NH2]
Ki [3]: ≤ 10 nM | Ki [4]: ≤ 10 nM

Ac-LTF[R8]QYWAQL[S5]AAAAA[dA]-NH2 (staple 4-11, stapled peptidomimetic macrocycle) [SP600, Ac-LTF$r8QYWAQL$AAAAAa-NH2]
Ki [3]: ≤ 10 nM | Ki [4]: ≤ 10 nM

Ac-LTF[R8]EYWASL[S5]AAAAA[dA]-NH2 (staple 4-11, stapled peptidomimetic macrocycle) [SP610, Ac-LTF$r8EYWASL$AAAAAa-NH2]
Ki [3]: ≤ 10 nM

Ac-LTF[R8]EYWALL[S5]AAAAA[dA]-NH2 (staple 4-11, stapled peptidomimetic macrocycle) [SP608, Ac-LTF$r8EYWALL$AAAAAa-NH2]
Ki [3]: ≤ 10 nM

Ac-LTF[R8]EYWAQ[Cba][S5]S-NH2 (staple 4-11, stapled peptidomimetic macrocycle) [SP595, Ac-LTF$r8EYWAQCba$S-NH2]
Ki [3]: > 1000 nM

Ac-LTF[R8]E[pY]WAQL[S5]AAAAA[dA]-NH2 (staple 4-11) [SP615, Ac-LTF$r8EpYWAQL$AAAAAa-NH2]
Ki [1]: < 10 nM | Ki [2]: < 10 nM
